Source: IntAct's records for PubMed 11454741

B1: Stonin-2 (Homo sapiens), Q8WXE9 (parent)
chain: MTTLDHVIATHQSEWVSFNEEPPFPAHSQGGTEEHLPGLSSSPDQSESSSGENHVVDGGSQDHSHSEQDDSSEKMGLISEAASPPGSPEQPPPDLASAISNWVQFEDDTPWASTSPPHQETAETALPLTMPCWTCPSFDSLGRCPLTSESSWTTHSEDTSSPSFGCSYTDLQLINAEEQTSGQASGADSTDNSSSLQEDEEVEMEAISWQASSPAMNGHPAPPVTSARFPSWVTFDDNEVSCPLPPVTSPLKPNTPPSASVIPDVPYNSMGSFKKRDRPKSTLMNFSKVQKLDISSLNRTPSVTEASPWRATNPFLNETLQDVQPSPINPFSAFFEEQERRSQNSSISSTTGKSQRDSLIVIYQDAISFDDSSKTQSHSDAVEKLKQLQIDDPDHFGSATLPDDDPVAWIELDAHPPGSARSQPRDGWPMMLRIPEKKNIMSSRHWGPIFVKLTDTGYLQLYYEQGLEKPFREFKLEICHEISEPRLQNYDENGRIHSLRIDRVTYKEKKKYQPKPAVAHTAEREQVIKLGTTNYDDFLSFIHAVQDRLMDLPVLSMDLSTVGLNYLEEEITVDVRDEFSGIVSKGDNQILQHHVLTRIHILSFLSGLAECRLGLNDILVKGNEIVLRQDIMPTTTTKWIKLHECRFHGCVDEDVFHNSRVILFNPLDACRFELMRFRTVFAEKTLPFTLRTATSVNGAEVEVQSWLRMSTGFSANRDPLTQVPCENVMIRYPVPSEWVKNFRRESVLGEKSLKAKVNRGASFGSTSVSGSEPVMRVTLGTAKYEHAFNSIVWRINRLPDKNSASGHPHCFFCHLELGSDREVPSRFANHVNVEFSMPTTSASKASVRSISVEDKTDVRKWVNYSAHYSYQVALGSIWLMLPTPFVHPTTLPLLFLLAMLTMFAW
B2: Synaptotagmin-1 (Rattus norvegicus (Rat)), P21707 (parent)
chain: MVSASHPEALAAPVTTVATLVPHNATEPASPGEGKEDAFSKLKQKFMNELHKIPLPPWALIAIAIVAVLLVVTCCFCVCKKCLFKKKNKKKGKEKGGKNAINMKDVKDLGKTMKDQALKDDDAETGLTDGEEKEEPKEEEKLGKLQYSLDYDFQNNQLLVGIIQAAELPALDMGGTSDPYVKVFLLPDKKKKFETKVHRKTLNPVFNEQFTFKVPYSELGGKTLVMAVYDFDRFSKHDIIGEFKVPMNTVDFGHVTEEWRDLQSAEKEEQEKLGDICFSLRYVPTAGKLTVVILEAKNLKKMDVGGLSDPYVKIHLMQNGKRLKKKKTTIKKNTLNPYYNESFSFEVPFEQIQKVQVVVTVLDYDKIGKNDAIGKVFVGYNSTGAELRHWSDMLANPRRPIAQWHTLQVEEEVDAMLAVKK
partner: B1 chain

Variants of: B1
Conditions: with syt1_rat Syt1, P21707

Row | Variant | effect of a mutation on the interaction
1 | W738A;K740A | decreasing interaction

Variants of: B2
Conditions: with ston2_human STON2, Q8WXE9

Row | Variant | effect of a mutation on the interaction
2 | MVSASHPEALAAPVTTVATLVPHNATEPASPGEGKEDAFSKLKQKFMNELHKIPLPPWALIAIAIVAVLLVVTCCFCVCKKCLFKKKNKKKGKEKGGKNAINMKDVKDLGKTMKDQALKDDDAETGLTDGEEKEEPKEEEKLGKLQYSLDYDFQNNQLLVGIIQAAELPALDMGGTSDPYVKVFLLPDAAKKFETKVHRKTLNPVFNEQFTFKVPYSELGGKTLVMAVYDFDRFSKHDIIGEFKVPMNTVDFGHVTEEWRDLQSAEKEEQEKLGDICFSLRYVPTAGKLTVVILEAKNLKKMDVGGLSDPYVKIHLMQNGKRLKKKKTTIKKNTLNPYYNESFSFEVPFEQIQKVQVVVTVLDYDKIGKNDAIGKVFVGYNSTGAELRHWSDMLANPRRPIAQWHTLQVEEEVDAMLAVKK [K189A;K190A] | decreasing interaction
